Data published in paper PMC2553845, “A Specificity Map for the PDZ Domain Family” (PLoS Biology, 2008).
Where no end group is shown, it is not given here.

Assays:
Experiment in all cases: ELISA; competition ELISA as described in ref. 20: synthetic peptide in solution blocks PDZ domain binding to immobilized peptide; IC50 = peptide concentration that blocked 50% of binding; no detectable interaction = IC50 > 500 μM
Conditions in all cases: both partners purified
SCRIB PDZ domain 1 = target: T1, SCRIB PDZ domain 1 (human, UniProt Q14160 728-815)
T1 construct: also called SCRIB-1

SCRIB PDZ domain 2 = target: T2, SCRIB PDZ domain 2 (human, UniProt Q14160 862-950)
T2 construct: also called SCRIB-2
T2 sequence (looked up): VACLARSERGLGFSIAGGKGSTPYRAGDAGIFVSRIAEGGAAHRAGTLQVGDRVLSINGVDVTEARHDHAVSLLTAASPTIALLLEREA

SCRIB PDZ domain 3 = target: T3, SCRIB PDZ domain 3 (human, UniProt Q14160 1004-1093)
T3 construct: also called SCRIB-3
T3 sequence (looked up): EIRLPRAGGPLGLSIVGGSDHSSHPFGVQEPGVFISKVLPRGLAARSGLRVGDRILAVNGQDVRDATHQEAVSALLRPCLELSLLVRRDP

Measured: IC50

T1 sequence (Q14160 728-815): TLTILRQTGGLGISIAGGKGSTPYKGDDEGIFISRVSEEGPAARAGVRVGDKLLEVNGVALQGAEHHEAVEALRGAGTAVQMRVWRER

RQIKIWFQNRRMKWKKRSWFEAWA (not fully specified (C-terminus)) [designed nonbinding peptide Π–RSWFEAWA (peptide 15)]
> 500 µM: SCRIB PDZ domain 1 | SCRIB PDZ domain 2 | SCRIB PDZ domain 3
